Results on five molecules are retold here after patent US6074851A, “Catalytic macro molecules having cdc25B like activity” (Pharmacia & UpJohn Company, priority 1997, dated 2000).

In series [1] the target is GST-cdc25B (residues 355-566) fusion protein (Homo sapiens, UniProt P30305). As to conditions: PNPP as substrate, 37° C.; cited from earlier work.
Substrate in series [2]: O=[N+]([O-])c1ccc(OP(=O)(O)O)cc1
The series is described as follows: purified protein, by the assay type. The settings on record: other: PNPP as substrate, 25° C., pH 8.0.

For the molecule `O=[N+]([O-])c1ccc(OP(=O)(O)O)cc1` [PNPP, p-nitrophenyl phosphate], in series [1], the Km was 16.6 mM.

B1: near full length GST-cdc25B (31-566) fusion protein (Homo sapiens) (protein)
chain: GLLLGSHGLLGSPVRAAASSPVTTLTQTMHDLAGLGSRSRLTHLSLSRRASESSLSSESSESSDAGLCMDSPSPMDPHMAEQTFEQAIQAASRIIRNEQFAIRRFQSMPVRLLGHSPVLRNITNSQAPDGRRKSEAGSGAASSSGEDKENDGFVFKMPWKPTHPSSTHALAEWASRREAFAQRPSSAPDLMCLSPDRKMEVEELSPLALGRFSLTPAEGDTEEDDGFVDILESDLKDDDAVPPGMESLISAPLVKTLEKEEEKDLVMYSKCQRLFRSPSMPCSVIRPILKRLERPQDRDTPVQNKRRRSVTPPEEQQEAEEPKARVLRSKSLCHDEIENLLDSDHRELIGDYSKAFLLQTVDGKHQDLKYISPETMVALLTGKFSNIVDKFVIVDCRYPYEYEGGHIKTAVNLPLERDAESFLLKSPIAPCSLDKRVILIFHCEFSSERGPRMCRFIRERDRAVNDYPSLYYPEMYILKGGYKEFFPQHPNFCEPQDYRPMNHEAFKDELKTFRLKTRSWAGERSRRELCSRLQDQ
Take B1: the Km in series [2] came out at 12.0 mM.

B2: human cdc25B (364-529) VHR-like catalytic domain, GST-free, GIQ-cdc25B (364-529), SEQ ID NO: 24 (Homo sapiens) (protein)
chain: HDEIENLLDSDHRELIGDYSKAFLLQTVDGKHQDLKYISPETMVALLTGKFSNIVDKFVIVDCRYPYEYEGGHIKTAVNLPLERDAESFLLKSPIAPCSLDKRVILIFHCEFSSERGPRMCRFIRERDRAVNDYPSLYYPEMYILKGGYKEFFPQHPNFCEPQDYR
In the case of B2, in series [2], the Km was 28 mM and the Vmax came to 250 nmol/min/mg.

B3: human cdc25B (356-556) minimal catalytic domain, Val356-Arg556, GST-free, Form II, SEQ ID NO: 9 (Homo sapiens) (protein)
chain: VLRSKSLCHDEIENLLDSDHRELIGDYSKAFLLQTVDGKHQDLKYISPETMVALLTGKFSNIVDKFVIVDCRYPYEYEGGHIKTAVNLPLERDAESFLLKSPIAPCSLDKRVILIFHCEFSSERGPRMCRFIRERDRAVNDYPSLYYPEMYILKGGYKEFFPQHPNFCEPQDYRPMNHEAFKDELKTFRLKTRSWAGERSR
With B3, the Km in series [2] was 2.0 mM.

B4: human cdc25B Mutein3, cdc25B (356-566) with Arg556Lys/Arg557Lys, SEQ ID NO: 23 (Homo sapiens; R570K/R571K) (protein)
chain: VLRSKSLCHDEIENLLDSDHRELIGDYSKAFLLQTVDGKHQDLKYISPETMVALLTGKFSNIVDKFVIVDCRYPYEYEGGHIKTAVNLPLERDAESFLLKSPIAPCSLDKRVILIFHCEFSSERGPRMCRFIRERDRAVNDYPSLYYPEMYILKGGYKEFFPQHPNFCEPQDYRPMNHEAFKDELKTFRLKTRSWAGERSKKELCSRLQDQ
Consider B4, for which, in series [2], the Michaelis-Menten constant (Km) came out at 2.0 mM.

In general, Km refers to the concentration of substrate that gives half-maximal velocity. For orientation: Vmax means the rate approached at saturating substrate.
